First the molecules themselves.
B1: RANK (Fc-fusion form of the extracellular domain) (Fc fusion, UniProt Q9Y6Q6 30-212, looked up)
chain: IAPPCTSEKHYEHLGRCCNKCEPGKYMSSKCTTTSDSVCLPCGPDEYLDSWNEEDKCLLHKVCDTGKALVAVVAGNSTTPRRCACTAGYHWSQDCECCRRNTECAPGLGAQHPLQLNKDTVCKPCLAGYFSDAFSSTDKCRPWTNCTFLGKRVEHHGTEKSDAVCSSSLPARKPPNEPHVYLP
notes: extracellular domain; not shown: Fc part
B2: DcR2 (Fc-fusion form of the extracellular domain) (Fc fusion, UniProt Q9UBN6 56-211, looked up)
chain: ATIPRQDEVPQQTVAPQQQRRSLKEEECPAGSHRSEYTGACNPCTEGVDYTIASNNLPSCLLCTVCKSGQTNKSSCTTTRDTVCQCEKGSFQDKNSPEMCRTCRTGCPRGMVKVSNCTPRSDIKCKNESAASSTGKTPAAEETVTTILGMLASPYH
notes: as for B1
B3: full-length human TR6 (without Fc), baculovirus/Sf9 (receptor)
chain: VAETPTYPWRDAETGERLVCAQCPPGTFVQRPCRRDSPTTCGPCPPRHYTQFWNYLERCRYCNVLCGEREEEARACHATHNRACRCRTGFFAHAGFCLEHASCPPGAGVIAPGTPSQNTQCQPCPPGTFSASSSSSEQCQPHRNCTALGLALNVPGSSSHDTLCTSCTGFPLSTRVPGAEECERAVIDFVAFQDISIKRLQRLLQALEAPEGWGPTPRAGRAALQLKLRRRLTELLGAQDGALLVRLLQALRVARMPGLERSVRERFLPVH
notes: also called soluble TR6; non-Fc form of TR6
B4: full-length human LIGHT on cells (293F stable transfectants; endogenous LIGHT on activated human T cells) (ligand)
chain: MEESVVRPSVFVVDGQTDIPFTRLGRSHRRQSCSVARVGLGLLLLLMGAGLAVQGWFLLQLHWRLGEMVTRLPDGPAGSWEQLIQERRSHEVNPAAHLTGANSSLTGSGGPLLWETQLGLAFLRGLSYHDGALVVTKAGYYYIYSKVQLGGVGCPLGLASTITHGLYKRTPRYPEELELLVSQQSPCGRATSSSRVWWDSSFLGGVVHLEAGEEVVVRVLDERLVRLRDGTRSYFGAFMV
notes: also called cell membrane LIGHT; LIGHT-transfectants
B5: OX40 (Fc-fusion form of the extracellular domain) (Fc fusion, UniProt P43489 29-214, looked up)
chain: LHCVGDTYPSNDRCCHECRPGNGMVSRCSRSQNTVCRPCGPGFYNDVVSSKPCKPCTWCNLRSGSERKQLCTATQDTVCRCRAGTQPLDSYKPGVDCAPCPPGHFSPGDNQACKPWTNCTLAGKHTLQPASNSSDAICEDRDPPATQPQETQGPPARPITVQPTEAWPRTSQGPSTRPVEVPGGRA
notes: as for B1
B6: human LIGHT protein, natural secreted form (aa 83-240), E. coli (ligand)
chain: LIQERRSHEVNPAAHLTGANSSLTGSGGPLLWETQLGLAFLRGLSYHDGALVVTKAGYYYIYSKVQLGGVGCPLGLASTITHGLYKRTPRYPEELELLVSQQSPCGRATSSSRVWWDSSFLGGVVHLEAGEEVVVRVLDERLVRLRDGTRSYFGAFMV
notes: also called soluble LIGHT
B7: OPG (Fc-fusion form) (Fc fusion, UniProt O00300 22-194, looked up)
chain: ETFPPKYLHYDEETSHQLLCDKCPPGTYLKQHCTAKWKTVCAPCPDHYYTDSWHTSDECLYCSPVCKELQYVKQECNRTHNRVCECKEGRYLEIEFCLKHRSCPPGFGVVQAGTPERNTVCKRCPDGFFSNETSSKAPCRKHTNCSVFGLLLTQKGNATHDNICSGNSESTQK
notes: as for B1
B8: DcR1 (Fc-fusion form of the extracellular domain) (Fc fusion, UniProt O14798 26-221, looked up)
chain: ATTARQEEVPQQTVAPQQQRHSFKGEECPAGSHRSEHTGACNPCTEGVDYTNASNNEPSCFPCTVCKSDQKHKSSCTMTRDTVCQCKEGTFRNENSPEMCRKCSRCPSGEVQVSNCTSWDDIQCVEEFGANATVETPAAEETMNTSPGTPAPAAEETMNTSPGTPAPAAEETMTTSPGTPAPAAEETMTTSPGTPA
notes: as for B1
B9: AITR (Fc-fusion form of the extracellular domain) (Fc fusion, UniProt Q9Y5U5 26-162, looked up)
chain: QRPTGGPGCGPGRLLLGTGTDARCCRVHTTRCCRDYPGEECCSEWDCMCVQPEFHCGDPCCTTCRHHPCPPGQGVQSQGKFSFGFQCIDCASGTFSGGHEGHCKPWTDCTQFGFLTVFPGNKTHNAVCVPGSPPAEP
notes: as for B1
B10: TNFR1-Fc (Fc fusion, UniProt P19438 30-211, looked up)
chain: LVPHLGDREKRDSVCPQGKYIHPQNNSICCTKCHKGTYLYNDCPGPGQDTDCRECESGSFTASENHLRHCLSCSKCRKEMGQVEISSCTVDRDTVCGCRKNQYRHYWSENLFQCFNCSLCLNGTVHLSCQEKQNTVCTCHAGFFLRENECVSCSNCKKSLECTKLCLPQIENVKGTEDSGTT
notes: as for B1
B11: TNF-gamma-β (form used not stated) (ligand)
chain: LKGQEFAPSHQQVYAPLRADGDKPRAHLTVVRQTPTQHFKNQFPALHWEHELGLAFTKNRMNYTNKFLLIPESGDYFIYSQVTFRGMTSECSEIRQAGRPNKPDSITVVITKVTDSYPEPTQLLMGTKSVCEVGSNWFQPIYLGAMFSLQEGDKLMVNVSDISLVDYTKEDKTFFGAFLL

Assay [1] has as its target T1, full length TNF-gamma-beta expressed on the cell surface (HEK293F stable transfectants); cells transfected … (human, UniProt O95150 1-251).
T1 construct: also called TNF-gamma-beta expressing cells
T1 sequence: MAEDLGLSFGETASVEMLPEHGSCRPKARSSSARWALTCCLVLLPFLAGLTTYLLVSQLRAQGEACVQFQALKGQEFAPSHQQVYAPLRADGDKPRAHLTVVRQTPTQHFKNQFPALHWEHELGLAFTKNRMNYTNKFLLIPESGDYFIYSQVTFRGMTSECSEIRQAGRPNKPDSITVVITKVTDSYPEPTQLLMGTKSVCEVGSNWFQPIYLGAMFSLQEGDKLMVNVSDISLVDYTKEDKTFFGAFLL
The experiment in a line: flow cytometry on HEK293F cells expressing full length TNF-gamma-beta. As for the experimental part:
(§1) These cells were used to screen the Fc-fusion form of the extracellular domain of TNFR family members, including TNFR1, Fas, HveA, DR3, DR4, DR5, DR6, DcR1, DcR2, TR6, OPG, RANK, AITR, TAC1, CD40, and OX40. […] TR6 has been previously described as a decoy receptor (Pitti et al., Nature 396:699-703 (1998); Yu et al., J. Biol. Chem. 274:13733-6 (1999)) capable of competing with Fas and HveA for binding of FasL and LIGHT, respectively.
(§2) One million cells, in 0.1 ml of FACS buffer (PBS, 0.1% BSA, 0.1% NaN₃), were incubated with 0.1-1 microgram of protein or antibody at RT for 15 min. The cells were washed with 3 ml of FACS buffer, reacted with biotinylated primary antibody, and stained with PE-conjugated secondary antibody at RT for 15 min. Cells were then washed again, resuspended in 0.5 microgram/ml of propidium iodide, and live cells were gated and analyzed on a FACScan using the CellQuest software (BD Biosciences).

Assay [2] deals with T1, full length TNF-gamma-beta expressed on …. The experiment in a line: flow cytometry competition on HEK293F cells expressing TNF-gamma-beta; competitor of DR3-Fc. As for the experimental part:
as §1, §2
A general note: A flow cytometer gives signals particle by particle.

For assay [3], the target named is B6. Description: BIAcore. As for the experimental part: (§3) The amount of bound protein was determined during washing of the flow cell with HBS buffer (10 mM HEPES, pH 7.4, 150 mM NaCl, 3.4 mM EDTA, 0.005% Surfactant P20). The flow cell surface was regenerated by washing off the bound proteins with 20 microliters of 10 mM glycine-HCl pH 2.3. […] The on- and off-rates were determined according a kinetic evaluation program in the BiaEvaluation 3 software using a 1:1 binding model and the global analysis method.
(§4) We determined the kinetics of binding of LIGHT to both the Fe and non-Fc versions of TR6 according to BIAcore analysis.

Assay [4] addresses B3. Description: flow cytometry competition on activated human T cells.
Assay [5] deals with T2, TR6-Fc (full-length human TNFR-6 alpha, SEQ ID NO:6 aa 1-300, fused to the Fc domain of human IgG1) (human, UniProt O95407 30-300).
T2 construct: also called TNFR-6 alpha Fc fusion protein; DcR3-Fc; not shown: Fc domain of human IgG1
T2 sequence: B3 chain
Description: flow cytometry on 293 cells overexpressing LIGHT. As for the experimental part: Cells were incubated with Fc-fusion proteins in 100 ul FACS buffer (d-PBS with 0.1% sodium azide and 0.1% BSA) for 15-20 minutes at room temperature. The cells were washed once and reacted with goat F (ab)₂ anti-human IgG (Southern Biotechnology, Birmingham, Ala.) for 15 minutes at room temperature. After wash, the cells were resuspended in 0.5 ug/ml propidium iodide, and live cells were gated and analyzed on a FACScan (BD Biosciences, Mansfield, Mass.).
This was tested on 293 cells overexpressing LIGHT according to flow cytometry.

Assay [6] concerns the target T3, TR2-Fc (extracellular domain of human TR2, aa 1-192, fused to the Fc domain of human IgG1) (human, UniProt Q92956 39-192).
T3 construct: range 1-192; also called HveA-Fc; not shown: Fc domain of human IgG1
T3 sequence (looked up): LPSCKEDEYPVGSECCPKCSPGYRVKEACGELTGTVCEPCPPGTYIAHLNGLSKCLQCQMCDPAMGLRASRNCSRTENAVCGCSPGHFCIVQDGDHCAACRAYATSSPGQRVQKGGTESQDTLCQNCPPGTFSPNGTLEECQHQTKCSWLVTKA
The experiment in a line: BIAcore, TR2-Fc immobilised; TR2-Fc, not TR6.

Assay [7] addresses B3. The experiment in a line: BIAcore; non-Fc TR6. A general note: In SPR one partner is held on a chip, and binding of the other changes the refractive index at the surface.
Assay [8] has as its target T2, TR6-Fc (full-length human TNFR-6 alpha, …). The experiment in a line: BIAcore; TR6-Fc form. As for the experimental part: as §3, §4
Assay [9] has as its target T4, DR3, full length, on cells (transfected 293T cells; naturally expressed on TF-1 cells and T cells) (human, UniProt Q93038 25-417).
T4 sequence: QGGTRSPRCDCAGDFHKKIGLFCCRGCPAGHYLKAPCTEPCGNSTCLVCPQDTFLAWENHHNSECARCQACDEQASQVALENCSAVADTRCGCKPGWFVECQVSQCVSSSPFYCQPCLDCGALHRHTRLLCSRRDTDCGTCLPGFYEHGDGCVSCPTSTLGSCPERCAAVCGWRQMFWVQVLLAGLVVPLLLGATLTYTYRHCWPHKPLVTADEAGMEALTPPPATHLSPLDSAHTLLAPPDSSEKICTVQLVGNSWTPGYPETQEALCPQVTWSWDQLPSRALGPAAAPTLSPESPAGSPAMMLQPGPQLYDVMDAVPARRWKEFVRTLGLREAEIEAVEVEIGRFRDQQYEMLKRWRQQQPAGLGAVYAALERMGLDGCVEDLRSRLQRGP
The experiment in a line: cell-based or functional assay.

B1: in assay [1], the binding result was “no binding”. Take B2: in assay [1], the binding result is on record as “no binding”. As for B3, the “molar ratio TR6 to DR3-Fc at which no DR3-Fc binding was detected” value in assay [2] was 2 molar ratio (TR6:DR3-Fc). The “fold off rate against TR6-Fc” value in [3] was roughly 2 fold. B4: the binding result in assay [4] and in [5] was “binds” each time. In the case of B5, the binding result in assay [1] was “no binding”. What is called Kd is a measure of binding affinity in units of concentration. A higher Kd goes with lower affinity. The term koff denotes the first-order rate constant of dissociation. Broadly, the kon is the rate constant with which the complex forms. Read a high kon as fast association. In assay [6], B6 came in with a Kd of 4.56 nM. In [7], this molecule registered a Kd of 14.3 nM, a koff of 0.00483 s⁻¹ and a kon of 338000 M⁻¹ s⁻¹. Also, in [8], the Kd stood at 5.46 nM, the koff is 0.0023 s⁻¹ and the kon amounted to 422000 M⁻¹ s⁻¹. As to B7, in assay [1], the binding result is listed as “no binding”. With B8, in assay [1], the binding result is “no binding”. On the same count and under the same terms, for B9 the value was “no binding”; for B10, “no binding”. As for B11, the “IFNγ production by anti-CD2 stimulated lamina propria mononuclear cells (ELISA)” value in [9] is no less than 2 fold.

Values taken from patent US20030198640A1 (Human Genome Sciences, published 2003).
